{"source": "the DeepSol protein solubility set"}
{"assay": "soluble on expression in E. coli; label from the status in PepcDB or PDB records"}
{"sequence": "HSIISETTNTNYRQEFVQLGTQMSGKLSFEEWKELYRRIVFWEIELEQADRQMGELLEMQKQEANRLFARFVTQNYREWIAKPDTRPTMSPDLFKQKVFPLLDNGEKVFFILIDNFRQDQWESVKSMLSEFYTFEEDMYLSILPTATQYARNAIFSGLMPLQIEKMFPDLWVDEESEEGKNLNEEPMIRTLIERYRKHYSFSYNKVYETKFGERLLGQIRSLSQNQLNVIVLNFVDMMSHARTDSKMIRELASNEAAYRSLTKSWFKHSTTYNLFRSIAEMGYKVVLTTDHGTIQVKNPVKVIGDRSTNTNLRYKIGKNLDYNPKEVFEIKDPASVGLPHNNLSDKFIFTKEDDFFAYPNNYNYYVQYYRNTFQHGGISLEEMLVPVITMQPK", "soluble on expression in E. coli": "soluble"}
{"sequence": "MSLARRVGIYTRISRDDEGDALGVARQHRDCERLADLRSWQAVKVYEDNDVSAYKRHVVREQFELMLSDLGAGLIDGIVAYDLDRLARQPRDLERLIEIFDERPRLEFATVTNDVNLGTPDGRTMSRIMVAFANKSSHDASRRIKRKHLELAQQGKDSGGPAPYGWLKEDRSKVDPKAAAAIREAQREILAGVRIGTIRTRWQEQGLGNPRAGTKRMAHHHVEHILTSPRLVGYRTYHGEVLNDEDGRPVMGEWEAINTLEEWEAVCAAVAERKQKQPGRSLARKYMLSGIARCGLCKTKIRGQINQRWQPGSKATKFTYQCSVVNGGCGKVGRVGEPVDRLIAELALEEQRARAAATTVPIDQRWSRNAELEQVNDDITQLVNAERSKQITVTTLLQLLPGKERQRDELKLERARFYKELKQSEAKGDAANLTLDEFFGLPIERQQEIVLHRLSAVIIHPAGKGRRRFDPSLIEPVWREGHHHHHH", "soluble on expression in E. coli": "soluble"}
{"sequence": "AEGKLNDELAKNKGKIPGLKIDQKIRGQMPERGWTEDDIKNTVSNGATGTSFDKRSPKKTPPDYLGRNDPATVYGSPGKYVVVNDRTGEVTQISDKTDPGWVDDSRIQWGNKNDQ", "soluble on expression in E. coli": "soluble"}
{"sequence": "TTILVVRRNGQTVMGGDGQVTFGSTVLKGNARKVRKLGEGKVLAGFAGSVADAMTLFDRFEAKLREWGGNLTKAAVELAKDWRTDRVLRRLEALLLVADKENIFIISGNGEVIQPDDDAAAIGSGGPYALAAAKALLRNTDLSAREIVEKAMTIAGEICIYTNQNIVIEEV", "soluble on expression in E. coli": "soluble"}
{"sequence": "LPVPAGSRFEARVLGETRAMCCPGCQAVAEAIVAGGLESYYRHRSENAANPEALPKALSEELQLYDRPDVQGGFVRHEGELAETSLMIEGISCAACGWLIEKHLRQLPGVAEARLNLSNHRLHVRWQDSQLPLSQLLGELRQIGYAGHPYQPDRATERLAMENRR", "soluble on expression in E. coli": "not soluble"}
{"sequence": "MKPIQVEREIFRYEQGAIKHIEDSIVTEFPVTIKMNGQEFVTMVSTPEYIEDMVIGFLASEGIIRKYEDIDSVWVQEKEGFVHVTTTKVNPYYEQMQNKRYITSCCGMSRQGFVFANDALSAKKMKGVHVQVAADDCFRLMKEMQQSADTFHRTGGVHNAALCDVNGIILSRMDIGRHNALDKIYGYCLRNDISIKDKIIVFSGRISSEILLKVAKIGCEIILSKSAPTELALQLAEDLGITTIGFIRNHSLNVYTHPERVLNIKLEHHHHHH", "soluble on expression in E. coli": "soluble"}
{"sequence": "MMNNVKYLSFALILAFSACKSGSASSQEPSEKQDTVKIFNLPQIPVVLNTVEQRTDYMVKHYWDRFDFSDTTYINQAEVPEQAWVDYCDLLEHVPLPVAQTAMKETFNRAEKNRKMLHFFEELADKYLYDPNSPMRNEEFYIPVLEALIASPALDETAKIRPQARLELAQKNRLGTKALNFTYTLDSGVKGTLYQFPAEYTLLFINNPGCHACAEMIEGLKASPVINGFTAAKKLKVLSIYPDEELDEWKKHRNDFAKEWTNGYDKELVIKNKNLYDLRAIPTLYLLDKNKTVLLKDATLQKVEQYLAERG", "soluble on expression in E. coli": "not soluble"}
{"sequence": "MHHHHHHSSGRENLYFQGSSESVRVVVRCRPMNGKEKAASYDKVVDVDVKLGQVSVKNPKGTAHEMPKTFTFDAVYDWNAKQFELYDETFRPLVDSVLQGFNGTIFAYGQTGTGKTYTMEGIRGDPEKRGVIPNSFDHIFTHISRSQNQQYLVRASYLEIYQEEIRDLLSKDQTKRLELKERPDTGVYVKDLSSFVTKSVKEIEHVMNVGNQNRSVGATNMNEHSSRSHAIFVITIECSEVGLDGENHIRVGKLNLVDLAGSERQAKTGAQGERLKEATKINLSLSALGNVISALVDGKSTHIPYRDSKLTRLLQDSLGGNAKTVMVANVGPASYNVEETLTTLRYANRAKNIKNKPRVNEDPKDALLREFQ", "soluble on expression in E. coli": "soluble"}
{"sequence": "MYVVINIDPGSTLNELMAFMTQKTITFSVTDQLSRLCDRTANGDRREVCTQTDDNCFDPPPNKKSKGYNGEDYGSPCSSATPSEPVDLGILTKTNGNSNGNHNWDTESKVLRGLIRSENGRSKSSIKEEPEEASVEDDISTEYMQNQLMQALFPKNQNGSGLANFASLEDNESIEGESGGLSDLGGFNMDSSSPASAIRYKPAYASTKRGVCRVCNREVSLITTHRRRHAITHLGFKTLKCALCYKFFSRQDLATGHFKKDHPTSEFMPFVDTMSPEDERQLVVMMELCFPEETGPRKRKDTDPKKQKVGEVEDSF", "soluble on expression in E. coli": "not soluble"}
{"sequence": "AHHHHHHGSKEIVERVKTKTKIPVYERSVENVLSAVLASDDIWRIVDLSEEPLPLVVAILESLNELGYVTFEDGVKLTEKGEELVAEYGIGKRYDFTCPHCQGKTVDLQAFADLLEQFREIVKDRPEPLHEFDQAYVTPETTVARVILMHTRGDLENKDIFVLGDDDLTSIALMLSGLPKRIAVLDIDERLTKFIEKAANEIGYEDIEIFTFDLRKPLPDYALHKFDTFITDPPETLEAIRAFVGRGIATLKGPRCAGYFGITRRESSLDKWREIQKLLLNEFNVVITDIIRNFNEYVNWGYAEETRAWKLIPIKKLPEYNWYKSYMFRIETLEGSRGYEDEIPEEDIYNDEESSTT", "soluble on expression in E. coli": "soluble"}
{"sequence": "MKYMIGVDIGTTSTKSVLYDENGTFIMKHQIGYDLHTPNVDVSEENPDELFDAVLMTIKYVMRESKVNKDDIKFVSFSAQMHSLIAMDQQHQRLTNNITWADNRAAKYATVINEVHDGNAIYQRTGTPIHPMSPLAKIFWMKHEWQDVFQRTAKFADIKTYIFYHLFDTYIIDYSMASATGMFNLETLDWDVEALELLGISKEMLPELVPTTYVMKGMKERYATLMGLNKDTPFVIGASDGVLSNLGVNSVGKGEVAVTIGTSGAIRTVIDKPRTDYKGRIFCYVLTEDHYVIGGPVNNGGVVLRWLRDELLASEVETAKRLGVDPYDVLTQIAKRVKPGADGLIFHPYLAGERAPLWNANARGSFFGLTLSHKKEHMIRAALEGVLYNLYTVYLALIEVMNETPKMIKATGGFAKSEVWRQMMSDIFDTELVVPESYESSCLGACVLGLKAVGDIEDFSIVSSMVGATNNHTPIEENVTVYQEIVSIFINLSRSLTENYEQIADFQRQHIAENKTQ", "soluble on expression in E. coli": "not soluble"}
{"sequence": "MAHHHHHHMATSSHRTAMSSLSAAMKQYVQQAAEDDVVCAFGPDYFHGARTGACVGSLFSATLCWYTFRLLKEDQREVDFLAGLKHGQRNPHFSTWTLLRGLRTQPMLTTGCIALATTSAMKCIKCYLANQRCREFFTDDVQFHMISELSETDLDAAAFLSTVLHNANGCGVGARNALSTLREDRSEDQPSMSPAPTASASTSTVNGLLHTHSSRLDSKEFTLTHRAPTYYDGVAVAFLGSVLDCYLPQKPVQKYYNMRVGTW", "soluble on expression in E. coli": "not soluble"}
{"sequence": "MSLTYLIKVLELFSGVGSFSISLNTLGIEHEIVGFSETRKTATQLFCKLHNKKESENLGDVRNVSAKDLDVDLLVFGSPCQSFTRAGKQGGGLKGSDTRSALMWEAVRIMEECKPKWIVWENVPDAISRKNMPNFQNYMDELDSLNYNTYYKVLNAHELGSAQKRKRLFSISIRKDIDNGKFEFLDLTREPKHLETYLENNDQPDIANEHIHSHLILGKDENGYKIKNGTKKGYLYANNGDGIDLAYVTSKARRGRVQVKACQTIMRGKTLGTINDGVLRFYSPREYWRLQEMPDELYKHVEACNFKPSTAYDVVGGVINQLHLKTVFLSLKKAFNEGHHHHHH", "soluble on expression in E. coli": "not soluble"}
{"sequence": "NILKIRCAPVTWPIGMGKNFKGVYHILNDEIYLFEAGGERLPHEFDIIKGIDNPELEQRFPLEIQQLRDEIELVQAASNEFNLDEFLAGELTPVFFGSAINNFGIQEILNSLIDWAPAPKPRDATVRMVEPDEPKFSGFIFKIQANMDPKHRDRIAFLRVCSGKFERGMKMKHLRINREIAASSVVTFMSHDRELVEEAYAGDIIGIPNHGNIQIGDSFSEGEQLAFTGIPFFAPELFRSVRIKNPLKIKQLQKGLQQLGEEGAVQVFKPMSGADLILGAVGVLQFEVVTSRLANEYGVEAVFDSASIWSARWVSCDDKKKLAEFEKANAGNLAIDAGGNLAYLAPNRVNLGLTQERWPDIVFHETREHSVKL", "soluble on expression in E. coli": "not soluble"}
{"sequence": "MSLDDKATKPHDRLAQALAEDMAAVNALIRERMSSEHAPRIPEVTAHLIEAGGKRLRPMLTLAAARLVGYGGPFHVHLAATVEFIHTATLLHDDVVDESRQRRGRPTANLLWDNKSSVLVGDYLFARSFQLMTDTGNMRVMEILANASAVIAEGEVLQLTAAQNLATTEDIYLRVIRGKTAALFSAATEVGGIIGGAPEDQVQALFDYGDALGIAFQIVDDLLDYGGKSAEIGKNTGDDFRERKLTMPVIKAVALADEAERAFWKRVIEKGDQQDGDLEHAMALMTKHGTLEATRLAAIGWTDTARKALAKLPDHPLRQMLDDLADYVVERVREGHHHHHH", "soluble on expression in E. coli": "soluble"}
{"sequence": "MKVLTVVIPCYNSAEYMDRAIESLLIGDEELEILIVNDGSMDNTSIIADEYEKKYPNTIRVIHKENGGHGDAINTGLKHSKGVYFKVLDSDDWFDKASLKKVLEVLKNMIKDSKSLDMLISNYVYENFSINKSRSINYKGAMPKEKIFTWDSLGHLKSSQNILMHSVIYRTELLRECNLDLPKHTFYVDNIFVYKPLPYVKTMYYLDVDLYRYFIGREDQSVNEKVMIKRIDQQIKVTKILIDCYNPMLLNCKKLRKYMVKYLVMMMTVSTVLLIKDNTEQSLNKKRELWSYLHSKNRKLYFEVNKSFLGLLIQIKGFVGRKIILLGYSLSRKVFGFNLEHHHHHH", "soluble on expression in E. coli": "not soluble"}
{"sequence": "MDRFMAGDLEVRCEVIYRRVKNPRIELRFDSLRLILPADFTGDPMEVLSSRSDWIQRKIHEFHEMLERASDMELEYRRDKELRSLVSGFLDHYSDVLGVEYGRVRFRRMRSRWGSCSSRGNLSFNTLLSHLPDRMVEYVVLHELAHLREMNHSPRFWGILESEMPDCTERRRMLRYYWARLYMEGLVDLEHHHHHH", "soluble on expression in E. coli": "soluble"}
{"sequence": "MLVKSMNFDPLKEAEKIKDEIISWRRDFHMHPELGFEEERTSKIVEEHLREWGYKIKRAGTGIIADIGDGGKTIALRADMDALPIQEENDVPYKSRVPGKMHACGHDAHTAMLLGAAKIIAEHSSELENKVRLIFQPAEEGGNGALKMIEAGALEGVDAIFGIHVWAELPSGIVGIREGPFLAGVGKFIAKIIGKGGHGAAPHFSIDPIPAAADAVLALQRIVAREVDPLESAVVTVGKIQGGTAFNVIPQYVELEGTFRFFTQELGKFLERRIREIIENTAKAHNCKAEVNTEILGPPTINDEKMVKFVAETAKALGLKVGEVRKTLGGEDFAYYLEKVPGAFIALGIRNEEKGIIYPHHHPKFDVDEDVLYLGTALEVALAFNFKG", "soluble on expression in E. coli": "soluble"}
{"sequence": "KAGQVDTNDLWSSIPVSPDEYITQRLPILVARMREQWSNNDHVKRYIDLCRRNIVGPRGIVMQAQSRKSRSGALDTAINDAIETWWQDWGRKGQCEVTGKLSWREIQTLCVETCARDGEFIARKIYGTHAGPHGFCLQLIDPLRLPVRYQMLKTDQTGGFVRQGIEFNRFGKPLAYHFSSIDERDTYYYSINGRGYIRVPAEEVIHIFKPVMVGQRRGLPWAATSLLRLHHLQGFEEAAVQNARAAASKMGFVCYPEGVGPRADEQENVAQTIQMNAGPLAIHELPQGAEFQDWNPQYPSGEFGLFTKAAKQSLAAGMDLSYHALSGDLADVNYSSIRQGTLDERERWKEDQQ", "soluble on expression in E. coli": "not soluble"}
{"sequence": "MFTTVITPRVSETDGVGHINNTTVPVWFEAGRHEIFKLFTPDLSFKRWRMVIIRMEVDYVNQMYYGQDVTVYTGIERIGNTSLTIYEEIHQNGVVCAKGRSVYVNFNFDTGRPEPIPDDIRVKLREHVWQPGE", "soluble on expression in E. coli": "soluble"}
